Results published in US20260274975A1.
Non-standard residues stand in square brackets, D forms with d. No end group written: not given here.

B1: AMH receptor binding peptide SEQ ID NO: 5 (peptide)
peptide: DG[dL]GSV[dL]A[dR][dK]N[dR][dR]D[dA]V[dL]
B2: AMH receptor binding peptide SEQ ID NO: 18 (peptide)
peptide: G[dL]Y[dW]SAYNP[dW][dR]HV[dA][dL][dA]S
B3: AMH receptor binding peptide SEQ ID NO: 19 (peptide)
peptide: GG[dR]SVSAN[dL]Q[dR]E[dR][dK]V[dA]G
B4: NegAMHR2BP (SEQ ID NO: 4) (peptide)
peptide: [dR][dW]G[dA]SN[dK]HFAN[dA]NQ[dR][dA][dL]
B5: AMH receptor binding peptide SEQ ID NO: 20 (peptide)
peptide: [dK]GSNA[dR][dK]N[dR][dR]D[dA]SGV[dA][dL]
B6: AMH receptor binding peptide SEQ ID NO: 3 (peptide)
peptide: Y[dW]G[dW]SHA[dK][dA]NQFPN[dR][dL][dA]
B7: AMH receptor binding peptide SEQ ID NO: 15 (peptide)
peptide: NG[dR]SQAHN[dL][dR][dK][dA]GV[dA][dL]S
B8: AMH receptor binding peptide SEQ ID NO: 17 (peptide)
peptide: EG[dL]QSSAYNNY[dW][dR][dK][dL]V[dA]
B9: AMH receptor binding peptide SEQ ID NO: 12 (peptide)
peptide: G[dL]Q[dW]SFANGQ[dW][dR]G[dA][dL]SG

Target: Anti-Müllerian hormone Receptor 2 (AMH-R2), protein target applied to the peptide microarray (UniProt Q16671)
Test: peptide microarray; protein target detected by anti-GST and Alexa Fluor 647 antibody, scanned signal

UniProt Q16671, sequence (Q16671 18-149 limits assumed): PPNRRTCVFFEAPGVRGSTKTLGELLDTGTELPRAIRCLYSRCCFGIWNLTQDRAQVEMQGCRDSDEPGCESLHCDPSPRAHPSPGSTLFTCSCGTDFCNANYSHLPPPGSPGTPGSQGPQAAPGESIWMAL

| Binder | Average | Rep 1 | Rep 2 |
| --- | --- | --- | --- |
| B1 | 65500 | 65400 | 65500 |
| B2 | 59200 | 60800 | 57500 |
| B3 | 56900 | 55700 | 58100 |
| B4 | 65500 | 65500 | 65400 |
| B5 | 47900 | 52300 | 43500 |
| B6 | 65500 | 65500 | 65500 |
| B7 | 61500 | 62900 | 60000 |
| B8 | 61200 | 60200 | 62200 |
| B9 | 63800 | 64600 | 62900 |
